# Data reported in the supplement of paper PMC7125110.
# ± gives the standard error. Fewer inactive variants are shown than the library holds.
# B1: glmS ribozyme (parent)
# chain: AUAAAAGCGCCAGAACUACAGAAAUGUAGUUGACGAGGAGGAGGUUUAUCGAAUUUUCGGCGGAUGCCUCCAAA
# Variants of: B1
# Assay: self-cleavage kobs at 10000 uM GlcN6P; higher = faster cleavage; RNA array
# Conditions: with glucosamine-6-phosphate
# Procedure, shortened: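 In situ transcription by E. coli RNA polymerase produced barcoded ribozyme variants on sequenced MiSeq chips, and a hybridised Cy3 probe tracked them at 37 °C. Glucosamine-6-phosphate was flowed in at 40 μM to 10 mM in HEPES/KCl/Mg(OAc)2 buffer. kcat and KM were taken from weighted Michaelis–Menten fits of kobs values from exponential decay fits.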
row,Variant,self-cleavage kobs at 10000 uM GlcN6P [s⁻¹]
1,C50U A64C C71A,< 1e-05
2,C50U G59C A64G C71U,< 1e-05
3,A52G U57G U65C,6.98e-05 ± 1.2e-05
4,C50U A53U G59C U65A,< 1e-05
5,A64G U69C,0.000688 ± 0.00018
6,G51A A52U G59A,< 1e-05
7,A52U G66C,4.08e-05 ± 1.2e-05
8,G60A C68U C70U,< 1e-05
9,G59C G63C,< 1e-05
10,U57C C58A C70U,3.37e-05 ± 1.7e-05
11,G51U U54C G66U,< 1e-05
12,G59A C68A U69A,< 1e-05
13,G51U A53U G60U C70U,< 1e-05
14,U55G G59U,4.4e-05 ± 1.1e-05
15,U55G G59C C70A,0.000104 ± 2.7e-05
16,A53C U69C,0.00127 ± 0.00031
17,U55G C61A,< 1e-05

row,Variant,self-cleavage kobs at 10000 uM GlcN6P [s⁻¹]
1,G59U G62A A64G,< 1e-05
2,U55A A64U C71A,4.3e-05 ± 1.9e-05
3,C50G G62C C70A,0.000153 ± 4.6e-05
4,G51C U55C,< 1e-05
5,A52C C67A,2.55e-05 ± 1.1e-05
6,A64G C70A,3.24e-05 ± 9.8e-06
7,G60C A64G U65G,< 1e-05
8,C58U G59C C61G G62C A64G U65A G66U,< 1e-05
9,A53G G63C,< 1e-05
10,C50G U54G U65G,< 1e-05
11,C58U G63C C70U,< 1e-05
12,U56G A64U C70U,4.79e-05 ± 1.2e-05
13,U56A U69C C71G,8.19e-05 ± 2e-05
14,A64U G66C,4.03e-05 ± 1.2e-05
15,A52U U55C U65C C68G U69A,< 1e-05
16,U54G C67U C68U,0.000147 ± 2.9e-05
